In US20060234944:

Assays:
[1] = target: T1, substrate EEISEVNLAAEF
T1 chain: EEISEVNLAAEF

[2] = target: T2, substrate EVNLAVEFWHDR
T2 chain: EVNLAVEFWHDR

[3] = target: T3, substrate RWHHEVNLAAEF
T3 chain: RWHHEVNLAAEF

B1: memapsin 2 (spontaneously activated promemapsin 2-T1; amino acids 43-456 and 45-456 of SEQ ID NO: 8) (protein)
chain: LRLPRETDEEPEEPGRRGSFVEMVDNLRGKSGQGYYVEMTVGSPPQTLNILVDTGSSNFAVGAAPHPFLHRYYQRQLSSTYRDLRKGVYVPYTQGKWEGELGTDLVSIPHGPNVTVRANIAAITESDKFFINGSNWEGILGLAYAEIARPDDSLEPFFDSLVKQTHVPNLFSLQLCGAGFPLNQSEVLASVGGSMIIGGIDHSLYTGSLWYTPIRREWYYEVIIVRVEINGQDLKMDCKEYNYDKSIVDSGTTNLRLPKKVFEAAVKSIKAASSTEKFPDGFWLGEQLVCWQAGTTPWNIFPVISLYLMGEVTNQSFRITILPQQYLRPVEDVATSQDDCYKFAISQSSTGTVMGAVIMEGFYVVFDRARKRIGFAVSACHVHDEFRTAAVEGPFVTLDMEDCGYNIPQTDEST
- rate of catalysis in competitive cleavage assay (MALDI-TOF), relative to EVNLAAEFWHDR [1]: statistically identical rates of catalysis for the upstream EEIS (SEQ ID NO: 52) and the downstream WHDR (SEQ ID NO: 29) sequence additions
- Km [2]: Km of 83±8.9 mM
- rate of catalysis in competitive cleavage assay (MALDI-TOF), relative to EVNLAAEFWHDR [3]: a 60-fold decrease in the rate of catalysis for the upstream RWHH (SEQ ID NO: 53) sequence addition when compared to the downstream WHDR (SEQ ID NO: 29) sequence addition
